The results in this text go back to paper PMC12440807.

This data set has as its target RNA polymerase II;RECQL5 (Sus scrofa domesticus?;Homo sapiens, UniProt A0A8D1DPV6;A0A0B8RVL1;P19387;O15514;I3LSI7;P61218;P62487;P52434;P36954;P52435;P6 …, |). The data set can be described thus: cryo-EM; phosphorylated Pol II; 2.8 A; Mg, Zn in model. To be noted: protein: native;recombinant; tags: none;His6-MBP, TEV-cleaved; copies: 1;1;1;1;1;1;1;1;1;1;1;1;1.

Chain of RNA polymerase II;RECQL5 (O94762 whole entry, one chain of several): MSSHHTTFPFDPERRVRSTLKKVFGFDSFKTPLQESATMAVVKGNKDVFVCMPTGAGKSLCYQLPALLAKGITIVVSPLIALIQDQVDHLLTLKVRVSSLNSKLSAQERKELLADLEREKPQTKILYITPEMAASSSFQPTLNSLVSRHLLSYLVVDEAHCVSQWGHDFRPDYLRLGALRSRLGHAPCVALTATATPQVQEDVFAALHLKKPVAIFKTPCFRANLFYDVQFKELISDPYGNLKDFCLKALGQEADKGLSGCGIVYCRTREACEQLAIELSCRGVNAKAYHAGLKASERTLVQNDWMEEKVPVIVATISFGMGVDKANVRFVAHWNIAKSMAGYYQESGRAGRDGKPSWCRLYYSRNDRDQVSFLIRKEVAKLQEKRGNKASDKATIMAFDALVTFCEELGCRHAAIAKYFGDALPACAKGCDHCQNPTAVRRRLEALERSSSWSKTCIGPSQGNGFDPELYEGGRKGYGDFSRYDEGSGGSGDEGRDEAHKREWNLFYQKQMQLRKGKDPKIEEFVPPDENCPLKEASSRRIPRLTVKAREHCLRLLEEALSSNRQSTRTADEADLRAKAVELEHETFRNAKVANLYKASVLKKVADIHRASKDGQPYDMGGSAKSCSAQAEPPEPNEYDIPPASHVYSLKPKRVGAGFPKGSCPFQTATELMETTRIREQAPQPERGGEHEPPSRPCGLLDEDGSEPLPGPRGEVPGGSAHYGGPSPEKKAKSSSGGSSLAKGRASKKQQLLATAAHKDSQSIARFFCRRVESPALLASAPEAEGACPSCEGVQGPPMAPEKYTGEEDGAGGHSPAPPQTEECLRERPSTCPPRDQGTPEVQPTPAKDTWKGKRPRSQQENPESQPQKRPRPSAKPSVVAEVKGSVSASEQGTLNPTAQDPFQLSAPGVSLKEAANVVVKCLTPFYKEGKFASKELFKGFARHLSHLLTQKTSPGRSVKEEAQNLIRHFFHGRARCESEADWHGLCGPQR

B1: EC DNA-RNA scaffold (mixed)
DNA 1: GCTCCCAGCTCCCTGCTGGCTCCGAGTGGGTTCTGCCGCTCTCAATGG
DNA 2: CCATTGAGAGCGGCCCTTGTGTTCAGGAGCCAGCAGGGAGCTGGGAGC
RNA: GAGAGGGAACCCACU
As for B1, the binding result was “binds”.
